Test system: peptide library, one residue held at a place counted from the Y acceptor
Test: relative phosphorylation of the sub-library (ratio to the mean residue at this position); higher = residue favoured
Procedure, shortened: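 Purified recombinant kinases were given 50 μM ATP with γ-32P-ATP and biotinylated Tyr-centred peptide library mixtures for 90 min in 384-well plates. Peptides bound to streptavidin membranes were rinsed and quantified by phosphorimaging, and intensities were normalized per position by the sum of the 18 randomized residues (16 with the Ser/Thr-free library) and multiplied by that number. The reported values are phosphorylation relative to the mean randomized residue.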

Chain of RET, construct: aa658-end, human (P07949 658-1114, looked up): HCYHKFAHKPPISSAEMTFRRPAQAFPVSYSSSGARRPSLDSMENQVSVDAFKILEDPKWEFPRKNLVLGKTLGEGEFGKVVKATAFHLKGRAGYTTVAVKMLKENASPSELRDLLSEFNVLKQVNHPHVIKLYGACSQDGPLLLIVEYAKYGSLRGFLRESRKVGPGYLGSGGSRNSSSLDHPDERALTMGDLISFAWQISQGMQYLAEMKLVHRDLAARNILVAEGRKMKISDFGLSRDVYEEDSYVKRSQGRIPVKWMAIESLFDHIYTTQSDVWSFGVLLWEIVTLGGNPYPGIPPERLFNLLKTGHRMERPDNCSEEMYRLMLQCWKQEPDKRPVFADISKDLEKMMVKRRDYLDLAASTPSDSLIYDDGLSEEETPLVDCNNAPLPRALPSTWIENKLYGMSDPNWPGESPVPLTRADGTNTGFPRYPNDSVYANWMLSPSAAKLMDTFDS

PTK6, construct: Full length, human (from UniProt Q13882)
relative phosphorylation
Details | at +1 | at +2 | at +3 | at +4 | at +5 | at -1 | at -2 | at -3 | at -4 | at -5
A fixed | 0.945 | 0.766 | 0.805 | 0.972 | 0.852 | 0.665 | 0.982 | 0.951 | 1.08 | 1.03
D fixed | 0.404 | 0.528 | 1.01 | 0.758 | 0.874 | 0.64 | 1.12 | 1.18 | 1.33 | 1.15
E fixed | 1.42 | 0.424 | 0.846 | 0.904 | 0.956 | 0.542 | 1.27 | 1.79 | 1.39 | 1.17
F fixed | 0.732 | 1.11 | 1.43 | 1.22 | 1.45 | 2.44 | 0.78 | 1.19 | 1.12 | 1.07
G fixed | 1.13 | 0.736 | 1.32 | 1.11 | 1.02 | 0.288 | 1.28 | 0.942 | 1.12 | 1.07
H fixed | 0.786 | 0.574 | 1.3 | 1.05 | 0.954 | 1.52 | 1.18 | 1.04 | 1.04 | 0.925
I fixed | 1.23 | 1.12 | 0.957 | 0.798 | 1.12 | 3.11 | 0.824 | 0.81 | 0.822 | 0.888
K fixed | 0.652 | 0.804 | 0.718 | 0.949 | 0.775 | 0.283 | 0.529 | 0.728 | 0.697 | 0.917
L fixed | 0.869 | 1.47 | 0.689 | 0.813 | 1.06 | 1.62 | 0.881 | 0.879 | 0.919 | 0.99
M fixed | 1.02 | 1.51 | 0.755 | 1.09 | 1.08 | 0.805 | 0.702 | 0.867 | 0.843 | 0.948
N fixed | 0.91 | 1.04 | 0.812 | 0.784 | 0.878 | 0.587 | 1.17 | 1.25 | 1.22 | 1.11
P fixed | 0.223 | 1.1 | 0.995 | 1.35 | 1.36 | 0.774 | 0.976 | 0.869 | 1.11 | 1.1
Q fixed | 1.32 | 0.607 | 0.763 | 1.01 | 0.75 | 0.43 | 0.998 | 0.811 | 0.977 | 0.995
R fixed | 1.07 | 1.12 | 0.985 | 1.17 | 0.853 | 0.261 | 0.631 | 0.86 | 0.821 | 0.997
S fixed | 1.24 | 0.902 | 0.97 | 0.871 | 0.837 | 0.418 | 1.2 | 0.962 | 0.833 | 0.863
T fixed | 1.64 | 0.587 | 0.732 | 0.72 | 0.818 | 0.83 | 0.814 | 0.84 | 0.637 | 0.778
V fixed | 1.48 | 0.616 | 0.863 | 0.884 | 0.898 | 1.43 | 0.855 | 0.705 | 0.742 | 0.632
W fixed | 0.938 | 2.98 | 2.04 | 1.55 | 1.46 | 1.35 | 1.81 | 1.33 | 1.3 | 1.38
pThr fixed | 0.711 | 0.441 | 0.759 | 0.797 | 0.891 | 0.57 | 0.79 | 0.848 | 0.878 | 1.08
pTyr fixed | 1.06 | 0.75 | 1.06 | 1.28 | 1.08 | 3.6 | 1.01 | 1.21 | 1.15 | 1.14

RET, construct: aa658-end, human (from UniProt P07949)
relative phosphorylation
Details | at +1 | at +2 | at +3 | at +4 | at +5 | at -1 | at -2 | at -3 | at -4 | at -5
A fixed | 0.957 | 0.877 | 0.845 | 0.859 | 0.923 | 0.865 | 0.967 | 0.857 | 1.08 | 1.05
D fixed | 0.306 | 0.726 | 0.705 | 0.87 | 0.823 | 1.29 | 0.865 | 1.04 | 1.02 | 0.925
E fixed | 0.415 | 0.976 | 0.636 | 0.831 | 0.783 | 1.2 | 0.885 | 1.43 | 1.1 | 0.86
F fixed | 1.49 | 1.1 | 1.12 | 1.14 | 0.844 | 1.02 | 0.624 | 0.934 | 0.881 | 0.91
G fixed | 0.541 | 0.643 | 0.88 | 1.05 | 1.44 | 0.5 | 1.34 | 1.18 | 1.27 | 1.23
H fixed | 1.37 | 0.942 | 1.17 | 1.1 | 1.14 | 1.4 | 1.04 | 1.11 | 1 | 1.04
I fixed | 1.59 | 0.802 | 1.28 | 0.73 | 0.765 | 1.46 | 0.674 | 0.606 | 0.749 | 0.786
K fixed | 0.629 | 0.939 | 0.582 | 1.12 | 1.17 | 0.656 | 1.3 | 1.11 | 1.26 | 1.33
L fixed | 1.41 | 1.07 | 1.09 | 0.83 | 0.76 | 1.12 | 0.768 | 0.748 | 0.888 | 0.872
M fixed | 1.29 | 0.996 | 1.2 | 1.01 | 0.972 | 0.76 | 0.712 | 0.769 | 0.931 | 0.875
N fixed | 0.513 | 1.21 | 0.865 | 1.08 | 1.09 | 1.29 | 1.2 | 1.14 | 0.859 | 1.05
P fixed | 0.494 | 0.965 | 1.24 | 1.17 | 1.54 | 0.896 | 1.19 | 1.15 | 1.23 | 1.1
Q fixed | 1.06 | 1.11 | 1.01 | 1.22 | 1.05 | 1 | 1.26 | 0.964 | 1.16 | 1.05
R fixed | 1.02 | 1.37 | 0.818 | 1.34 | 1.29 | 0.672 | 1.52 | 1.3 | 1.31 | 1.42
S fixed | 0.889 | 0.97 | 0.884 | 0.888 | 1 | 0.695 | 1.24 | 1.09 | 0.89 | 0.95
T fixed | 0.943 | 1.01 | 0.962 | 0.874 | 0.952 | 0.984 | 1.04 | 1.04 | 0.757 | 0.892
V fixed | 1.42 | 0.924 | 1.15 | 0.775 | 0.635 | 1.12 | 0.708 | 0.646 | 0.735 | 0.773
W fixed | 1.66 | 1.37 | 1.56 | 1.11 | 0.819 | 1.07 | 0.668 | 0.879 | 0.883 | 0.882
pThr fixed | 0.469 | 1.04 | 0.392 | 0.595 | 0.607 | 0.878 | 0.723 | 1.02 | 0.966 | 0.876
pTyr fixed | 1.17 | 1.45 | 0.459 | 0.586 | 0.622 | 1.46 | 0.933 | 1.85 | 1.23 | 1.15

From the supplement of paper PMC11136658
